Results published in patent publication US20250043302A1, “MUTATED HYDROXYPHENYLPYRUVATE DIOXYGENASE POLYPEPTIDE, AND CODING GENE AND USE THEREOF” (BEIJING DABEINONG BIOTECHNOLOGY CO., LTD., priority 2021, published 2025).

Columns and labels:
Type in all cases: in vivo
[1] = system: Arabidopsis thaliana T1 plants; assay: Isoxaflutole tolerance of transgenic Arabidopsis thaliana T1 plants (spray, bleached leaf area grade, damage score); set-up: Scores (pesticide damage): scale not given here; conditions: spray, Arabidopsis thaliana T1 plants; for Classification and statistics of the grade of pesticide damage: Grade 0 (number of plants) / Classification and statistics of the grade of pesticide damage: Grade 1 (number of plants) / Classification and statistics of the grade of pesticide damage: Grade 2 (number of plants) / Classification and statistics of the grade of pesticide damage: Grade 3 (number of plants): 16 plants
In short: (§1)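 T1 transformants selected by glufosinate; 18-day-old plants, with empty-vector and wild-type controls, sprayed with topramezone (25–200 g ai/ha), isoxaflutole (35–280 g ai/ha) or mesotrione (52.5–420 g ai/ha), water as 0×. Bleached leaf area fraction scored at 7 DAT as grades 0–3.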

[2] = system: Arabidopsis thaliana T1 plants; assay: Mesotrione tolerance of transgenic Arabidopsis thaliana T1 plants (spray, bleached leaf area grade, damage score); set-up: Scores: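 damage score 0-100 computed as Σ(N×S)/(T×M)×100 over grades 0-3 with higher meaning more damage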; conditions: Arabidopsis thaliana T1 plants; for Grade 0 (classification and statistics of the grade of pesticide damage; number of plants) / Grade 1 (classification and statistics of the grade of pesticide damage; number of plants) / Grade 2 (classification and statistics of the grade of pesticide damage; number of plants) / Grade 3 (classification and statistics of the grade of pesticide damage; number of plants): 16 plants
In short: as §1

[3] = system: Arabidopsis thaliana T1 plants; assay: Topramezone tolerance of transgenic Arabidopsis thaliana T1 plants (spray, bleached leaf area grade, damage score); conditions: 7 DAT, Table 4; for Classification and statistics of the grade of pesticide damage: Grade 0 / Classification and statistics of the grade of pesticide damage: Grade 1 / Classification and statistics of the grade of pesticide damage: Grade 2 / Classification and statistics of the grade of pesticide damage: Grade 3: number of plants; for Scores: pesticide damage score 0-100
In short: as §1

[4] = isoxaflutole 35 g ai/ha (0.5x field concentration)
[5] = isoxaflutole 70 g ai/ha (1x field concentration)

B1: NtHPPDm-F383W-02: nucleotide sequence encoding Nicotiana tabacum HPPD with F383W; vector DBN11752 (nucleic acid)
DNA: ATGGGGAAGCTGGAAACCGTCACTACCACCTCGGCGGCGGCTGCTGATGATTCATCGGAATTAACAACCAACTTCAAGTTGGTTGGTTTCAAAAATTTCATCAGAACAAACCCAAGGTCTGATTTCTTCTCCGTCAAGAGCTTCCACCACATTGAATTCTGGTGCGGTGACGCAACTAACACAGCGCGCCGCTTCTCATGGAGCCTAGGGATGCCAATTGCAGCTAAGAGTGATCTTTCAACAGGAAACAGCGTGCACGCCTCCTACCTCCTCCGGCCCGTAAGCGGTTCTTTACAGTTCCTGTTTACAGCACCATATTCACCTTCTATTTCGACTCCTAGTTCAGCTGCAATCCCATCTTTTTCCACATCTACACATAGGTCTTTCACTACAACACATGGACTGGGTGTTCGTGCCGTCGCCCTCGAGGTGGAGAATGCTTATACTGCCTTCAGTGCTTCTGTCTCCAGAGGCGCCAAGCCAATGTTTGAACCTGTGACAATTGATGAACAAGTAGCAATGGCTGAGGTTCATTTGTACGGCGATGTTGTGCTGCGATTTGTTTCTTATCTCAAGGACGCCGACAACCTGGTCTTCCTGCCGGGGTTTGAGGCCATGGATGAAACTGCTAGTTACAAAGAACTTGATTATGGAATACGGCGTTTGGATCATGCTGTGGGCAATGTTCCAGAACTCGGCCCGGTAGTTGATTACATCAAGAGGTTTACTGGATTTCATGAATTTGCAGAGTTTACCGCTGAAGATGTGGGAACTGCGGAAAGTGGGCTAAACTCCATGGTTCTTGCGAACAATGATGAGACTGTGCTCCTCCCTCTGAATGAGCCTGTTTATGGCACCAAAAGAAAATCTCAGATACAAACATATCTTGAGCATAATGAAGGAGCTGGGGTGCAGCACCTTGCTCTTGTTACTGAAGACATCTTTAAGACTTTGACAGAGATGAGGAAGAGAAGTGGAGTTGGAGGTTTTGAGTTCATGCCTTCCCCCCCGCCGACCTACTACAAGAATTTGAAGAACAGGGCTGGTGACGTCCTCTCAGACGAGCAGATTTTGGCTTGTGAGGAGCTTGGCATCTTGGTAGACCGGGACGACCAGGGGACGCTTCTCCAAATTTTCACAAAACCCGTCGGGGACCGCCCCACCATATGGATTGAGATCATCCAGAGGATAGGCTGCATGCTTAAAGATGGAAAAGGTCAAGTGTACCAGAAGGGTGGTTGTGGTGGGTTTGGCAAAGGAAATTTTTCTGAGCTGTTCAGAAGCATAGAAGAATATGAGAAGACACTGGAAGCAAAACAAGCAAATCAAGTTGCGGCCGCGTGA
modifications: NtHPPDm-F383W-02 Nucleotide Sequence
notes: vector DBN11752
With B1 the Resistance evaluation [1, 4] was “Non-resistant”, the “Scores (pesticide damage)” value [1, 4] was 88 and the “Classification and statistics of the grade of pesticide damage: Grade 0 (number of plants)” value [1, 4] was 0. For the same molecule, the “Classification and statistics of the grade of pesticide damage: Grade 1 (number of plants)” value [1, 4] was 0, the “Classification and statistics of the grade of pesticide damage: Grade 2 (number of plants)” value [1, 4] was 6 and the “Classification and statistics of the grade of pesticide damage: Grade 3 (number of plants)” value [1, 4] was 10. The Resistance evaluation [1, 5] was “Non-resistant”, the “Scores (pesticide damage)” value [1, 5] was 100 and the “Classification and statistics of the grade of pesticide damage: Grade 0 (number of plants)” value [1, 5] was 0. For the same molecule, the “Classification and statistics of the grade of pesticide damage: Grade 1 (number of plants)” value [1, 5] was 0, the “Classification and statistics of the grade of pesticide damage: Grade 2 (number of plants)” value [1, 5] was 0 and the “Classification and statistics of the grade of pesticide damage: Grade 3 (number of plants)” value [1, 5] was 16. The Resistance evaluation ([2]; mesotrione 52.5 g ai/ha) was “Non-resistant”, the Scores ([2]; mesotrione 52.5 g ai/ha) was 100 and the “Grade 0 (classification and statistics of the grade of pesticide damage; number of plants)” value ([2]; mesotrione 52.5 g ai/ha) was 0. The “Grade 1 (classification and statistics of the grade of pesticide damage; number of plants)” value ([2]; mesotrione 52.5 g ai/ha) was 0, the “Grade 2 (classification and statistics of the grade of pesticide damage; number of plants)” value ([2]; mesotrione 52.5 g ai/ha) was 0 and the “Grade 3 (classification and statistics of the grade of pesticide damage; number of plants)” value ([2]; mesotrione 52.5 g ai/ha) was 16. For the same molecule, the Resistance evaluation ([2]; mesotrione 105 g ai/ha) was “Non-resistant”, the Scores ([2]; mesotrione 105 g ai/ha) was 100 and the “Grade 0 (classification and statistics of the grade of pesticide damage; number of plants)” value ([2]; mesotrione 105 g ai/ha) was 0. The “Grade 1 (classification and statistics of the grade of pesticide damage; number of plants)” value ([2]; mesotrione 105 g ai/ha) was 0, the “Grade 2 (classification and statistics of the grade of pesticide damage; number of plants)” value ([2]; mesotrione 105 g ai/ha) was 0 and the “Grade 3 (classification and statistics of the grade of pesticide damage; number of plants)” value ([2]; mesotrione 105 g ai/ha) was 16. For the same molecule, the “Classification and statistics of the grade of pesticide damage: Grade 0” value ([3]; topramezone 25 g ai/ha (1×)) was 0, the “Classification and statistics of the grade of pesticide damage: Grade 1” value ([3]; topramezone 25 g ai/ha (1×)) was 0 and the “Classification and statistics of the grade of pesticide damage: Grade 2” value ([3]; topramezone 25 g ai/ha (1×)) was 10. For the same molecule, the “Classification and statistics of the grade of pesticide damage: Grade 3” value ([3]; topramezone 25 g ai/ha (1×)) was 6, the “Classification and statistics of the grade of pesticide damage: Grade 0” value ([3]; topramezone 100 g ai/ha (4×)) was 0 and the “Classification and statistics of the grade of pesticide damage: Grade 1” value ([3]; topramezone 100 g ai/ha (4×)) was 0. The “Classification and statistics of the grade of pesticide damage: Grade 2” value ([3]; topramezone 100 g ai/ha (4×)) was 0, the “Classification and statistics of the grade of pesticide damage: Grade 3” value ([3]; topramezone 100 g ai/ha (4×)) was 16 and the Scores ([3]; topramezone 25 g ai/ha (1×)) was 79. For the same molecule, the Scores ([3]; topramezone 100 g ai/ha (4×)) was 100, the Resistance evaluation ([3]; topramezone 25 g ai/ha (1×)) was “non-resistant (non-resistant plants (scores 68-100))” and the Resistance evaluation ([3]; topramezone 100 g ai/ha (4×)) was “non-resistant (non-resistant plants (scores 68-100))”.
